# Data as given in the RNAGym collection of RNA variant scans (doi:10.7554/elife.90254).
# B1: LINE1-mini (parent)
# chain: GGCAGAGCUCAACACAGCGUGGCAAAGUGGCUGUGGCUAGACUGCC
# Variants of: B1
# Assay: self-cleavage, relative activity (ratio to wild type); higher = more cleavage; in vitro, sequencing; the parent is a self-cleaving ribozyme
row,Variant,self-cleavage
1,GGCAGAGCUCAACACAGCGUGGCAAAGUGAUUGUGGCUAGACUGCC [G30A C31U],0.14
2,GGCAGAGCUCAACACAGCGUGGCAAAGUGAAUGUGGCUAGACUGCC [G30A C31A],0.4
3,GGCAGAGCUCAACACAGCGUGGCAAAGUGAGUGUGGCUAGACUGCC [G30A C31G],0.09
4,GGCAGAGCUCAACACAGCGUGGCAAAGUGACUGUGGCAAGACUGCC [G30A U38A],0.72
5,GGCAGAGCUCAACACAGCGUGGCAAAGUGACUGUGGCCAGACUGCC [G30A U38C],0.64
6,GGCAGAGCUCAACACAGCGUGGCAAAGUGACUGUGGCGAGACUGCC [G30A U38G],0.03
7,GGCAGAGCUCAACACAGCGUGGCAAAGUGACUGUGGCUAAACUGCC [G30A G40A],0.19
8,GGCAGAGCUCAACACAGCGUGGCAAAGUGACUGUGGCUAUACUGCC [G30A G40U],0.18
9,GGCAGAGCUCAACACAGCGUGGCAAAGUGACUGUGGCUACACUGCC [G30A G40C],0.16
10,GGCAGAGCUCAACACAGCGUGGCAAAGUGUCUGUGGCUCGACUGCC [G30U A39C],0.19
11,GGCAGAGCUCAACACAGCGUGGCAAAGUGUCUGUGGCUUGACUGCC [G30U A39U],0.87
12,GGCAGAGCUCAACACAGCGUGGCAAAGUGUCUGUGGCUGGACUGCC [G30U A39G],0.09
13,GGCAGAGCUCAACACAGCGUGGCAAAGUGACUGUGGCUAGACUCCC [G30A G44C],0.56
14,GGCAGAGCUCAACACAGCGUGGCAAAGUGACUGUGGCUAGACUACC [G30A G44A],0.64
15,GGCAGAGCUCAACACAGCGUGGCAAAGUGACUGUGGCUAGACUUCC [G30A G44U],0.18
16,GGCAGAGCUCAACACAGCGUGGCAAAGUGCCUGUGGCUAGACUGCU [G30C C46U],1.09
17,GGCAGAGCUCAACACAGCGUGGCAAAGUGCCUGUGGCUAGACUGCG [G30C C46G],0.59
18,GGCAGAGCUCAACACAGCGUGGCAAAGUGCCUGUGGCUAGACUGCA [G30C C46A],0.45
19,GGCAGAGCUCAACACAGCGUGGCAAAGUGUUUGUGGCUAGACUGCC [G30U C31U],0.07

row,Variant,self-cleavage
1,GGCAGAGCUCAACACAGCGUGGCAAAGUGUAUGUGGCUAGACUGCC [G30U C31A],0.19
2,GGCAGAGCUCAACACAGCGUGGCAAAGUGUGUGUGGCUAGACUGCC [G30U C31G],0.06
3,GGCAGAGCUCAACACAGCGUGGCAAAGUGACUGUGGCUAGCCUGCC [G30A A41C],0.07
4,GGCAGAGCUCAACACAGCGUGGCAAAGUGACUGUGGCUAGUCUGCC [G30A A41U],0.6
5,GGCAGAGCUCAACACAGCGUGGCAAAGUGACUGUGGCUAGGCUGCC [G30A A41G],0.27
6,GGCAGAGCUCAACACAGCGUGGCAAAGUGACUGUGGCUAGACUGGC [G30A C45G],0.4
7,GGCAGAGCUCAACACAGCGUGGCAAAGUGACUGUGGCUAGACUGUC [G30A C45U],1.57
8,GGCAGAGCUCAACACAGCGUGGCAAAGUGACUGUGGCUAGACUGAC [G30A C45A],0.71
9,GGCAGAGCUCAACACAGCGUGGCAAAGUGACUGUAGCUAGACUGCC [G30A G35A],0.12
10,GGCAGAGCUCAACACAGCGUGGCAAAGUGACUGUUGCUAGACUGCC [G30A G35U],0.09
11,GGCAGAGCUCAACACAGCGUGGCAAAGUGACUGUCGCUAGACUGCC [G30A G35C],0.08
12,GGCAGAGCUCAACACAGCGUGGCAAAGUGCCUGUGGUUAGACUGCC [G30C C37U],0.1
13,GGCAGAGCUCAACACAGCGUGGCAAAGUGCCUGUGGGUAGACUGCC [G30C C37G],0.07
14,GGCAGAGCUCAACACAGCGUGGCAAAGUGCCUGUGGAUAGACUGCC [G30C C37A],0.07
15,GGCAGAGCUCAACACAGCGUGGCAAAGUGCCUGUGGCUAGACUUCC [G30C G44U],0.09
16,GGCAGAGCUCAACACAGCGUGGCAAAGUGCCUGUGGCUAGACUCCC [G30C G44C],0.27
17,GGCAGAGCUCAACACAGCGUGGCAAAGUGCCUGUGGCUAGACUACC [G30C G44A],0.2
18,GGCAGAGCUCAACACAGCGUGGCAAAGUGCCUGGGGCUAGACUGCC [G30C U34G],0.1
19,GGCAGAGCUCAACACAGCGUGGCAAAGUGCCUGAGGCUAGACUGCC [G30C U34A],0.12

row,Variant,self-cleavage
1,GGCAGAGCUCAACACAGCGUGGCAAAGUGCCUGCGGCUAGACUGCC [G30C U34C],0.12
2,GGCAGAGCUCAACACAGCGUGGCAAAGUGCCUGUGCCUAGACUGCC [G30C G36C],0.06
3,GGCAGAGCUCAACACAGCGUGGCAAAGUGCCUGUGACUAGACUGCC [G30C G36A],0.1
4,GGCAGAGCUCAACACAGCGUGGCAAAGUGCCUGUGUCUAGACUGCC [G30C G36U],0.11
5,GGCAGAGCUCAACACAGCGUGGCAAAGUGACUGUGACUAGACUGCC [G30A G36A],0.43
6,GGCAGAGCUCAACACAGCGUGGCAAAGUGACUGUGUCUAGACUGCC [G30A G36U],0.1
7,GGCAGAGCUCAACACAGCGUGGCAAAGUGACUGUGCCUAGACUGCC [G30A G36C],0.07
8,GGCAGAGCUCAACACAGCGUGGCAAAGUGACUUUGGCUAGACUGCC [G30A G33U],0.08
9,GGCAGAGCUCAACACAGCGUGGCAAAGUGACUAUGGCUAGACUGCC [G30A G33A],0.1
10,GGCAGAGCUCAACACAGCGUGGCAAAGUGACUCUGGCUAGACUGCC [G30A G33C],0.07
11,GGCAGAGCUCAACACAGCGUGGCAAAGUGUCUGUGGCUAGACUGCC [G30U],1.62
12,GGCAGAGCUCAACACAGCGUGGCAAAGUGACUGUGGCUAGACUGCC [G30A],1.87
13,GGCAGAGCUCAACACAGCGUGGCAAAGUGCCUGUGGCUAGACUGCC [G30C],1.63
14,GGCAGAGCUCAACACAGCGUGGCAAAGUGCCUGUGGCUCGACUGCC [G30C A39C],0.26
15,GGCAGAGCUCAACACAGCGUGGCAAAGUGCCUGUGGCUUGACUGCC [G30C A39U],2.23
16,GGCAGAGCUCAACACAGCGUGGCAAAGUGCCUGUGGCUGGACUGCC [G30C A39G],0.12
17,GGCAGAGCUCAACACAGCGUGGCAAAGUGCCUGUGGCUAGACUGAC [G30C C45A],0.33
18,GGCAGAGCUCAACACAGCGUGGCAAAGUGCCUGUGGCUAGACUGUC [G30C C45U],0.88
